According to IntAct's records for PubMed 20925060:

B1: Alpha-crystallin (Mycobacterium tuberculosis (strain ATCC 25618 / P9WMK1 (parent)
chain: MATTLPVQRHPRSLFPEFSELFAAFPSFAGLRPTFDTRLMRLEDEMKEGRYEVRAELPGVDPDKDVDIMVRDGQLTIKAERTEQKDFDGRSEFAYGSFVRTVSLPVGADEDDIKATYDKGILTVSVAVSEGKPTEKHIQIRSTN
partner: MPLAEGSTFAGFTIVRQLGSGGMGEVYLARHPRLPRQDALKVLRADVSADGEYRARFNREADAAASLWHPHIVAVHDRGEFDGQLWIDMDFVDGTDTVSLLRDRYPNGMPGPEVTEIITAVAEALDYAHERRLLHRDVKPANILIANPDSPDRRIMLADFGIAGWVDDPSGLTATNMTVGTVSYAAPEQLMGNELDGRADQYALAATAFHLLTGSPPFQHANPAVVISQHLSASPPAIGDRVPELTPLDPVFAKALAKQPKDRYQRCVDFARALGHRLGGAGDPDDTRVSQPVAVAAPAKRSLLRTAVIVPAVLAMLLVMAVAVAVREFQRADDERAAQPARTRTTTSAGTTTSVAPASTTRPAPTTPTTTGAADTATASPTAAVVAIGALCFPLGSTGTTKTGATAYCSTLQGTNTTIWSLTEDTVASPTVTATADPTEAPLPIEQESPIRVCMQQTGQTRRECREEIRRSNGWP
B2: Chaperonin GroEL 2 (Mycobacterium tuberculosis (strain ATCC 25618 / P9WPE7 (parent)
chain: MAKTIAYDEEARRGLERGLNALADAVKVTLGPKGRNVVLEKKWGAPTITNDGVSIAKEIELEDPYEKIGAELVKEVAKKTDDVAGDGTTTATVLAQALVREGLRNVAAGANPLGLKRGIEKAVEKVTETLLKGAKEVETKEQIAATAAISAGDQSIGDLIAEAMDKVGNEGVITVEESNTFGLQLELTEGMRFDKGYISGYFVTDPERQEAVLEDPYILLVSSKVSTVKDLLPLLEKVIGAGKPLLIIAEDVEGEALSTLVVNKIRGTFKSVAVKAPGFGDRRKAMLQDMAILTGGQVISEEVGLTLENADLSLLGKARKVVVTKDETTIVEGAGDTDAIAGRVAQIRQEIENSDSDYDREKLQERLAKLAGGVAVIKAGAATEVELKERKHRIEDAVRNAKAAVEEGIVAGGGVTLLQAAPTLDELKLEGDEATGANIVKVALEAPLKQIAFNSGLEPGVVAEKVRNLPAGHGLNAQTGVYEDLLAAGVADPVKVTRSALQNAASIAGLFLTTEAVVADKPEKEKASVPGGGDMGGMDF
partner: B1 partner

Variants of: B1
Settings: with pknf_myctu pknF

| Variant | effect of a mutation on the interaction |
| --- | --- |
| MATTLPVQRHPRSLFPEFSELFAAFPAFAGLRPTFDTRLMRLEDEMKEGRYEVRAELPGVDPDKDVDIMVRDGQLTIKAERTEQKDFDGRSEFAYGSFVRTVSLPVGADEDDIKATYDKGILTVSVAVSEGKPTEKHIQIRSTN [S27A] | decreasing interaction |
| MATTLPVQRHPRSLFPEFSELFAAFPSFAGLRPTFDTRLMRLEDEMKEGRYEVRAELPGVDPDKDVDIMVRDGQLTIKAERTEQKDFDGRSEFAYGSFVRTVSLPVGADEDDIKATYDKGILTVSVAVSEGKPAEKHIQIRSTN [T134A] | decreasing interaction |
| MATTLPVQRHPRSLFPEFAELFAAFPSFAGLRPTFDTRLMRLEDEMKEGRYEVRAELPGVDPDKDVDIMVRDGQLTIKAERTEQKDFDGRSEFAYGSFVRTVSLPVGADEDDIKATYDKGILTVSVAVSEGKPTEKHIQIRSTN [S19A] | decreasing interaction |
| MATALPVQRHPRSLFPEFSELFAAFPSFAGLRPTFDTRLMRLEDEMKEGRYEVRAELPGVDPDKDVDIMVRDGQLTIKAERTEQKDFDGRSEFAYGSFVRTVSLPVGADEDDIKATYDKGILTVSVAVSEGKPTEKHIQIRSTN [T4A] | decreasing interaction |

Variants of: B2
Settings: with pknf_myctu pknF

| Variant | effect of a mutation on the interaction |
| --- | --- |
| T92A | decreasing interaction |
| T90A | decreasing interaction |
| T127A | decreasing interaction |
